# What was measured:
# [1] = molecular target: integrin αvβ3 on chick embryo sternal chondrocytes (chick) (UniProt P26008); assay: cell-based or functional assay
# [2] = molecular target: latent TGF-β1 released by human OA cartilage explants (human) (UniProt P01137); assay: cell-based or functional assay
# latent TGF-β1 released by human OA cartilage explants (human), sequence (P01137 30-390 limits assumed): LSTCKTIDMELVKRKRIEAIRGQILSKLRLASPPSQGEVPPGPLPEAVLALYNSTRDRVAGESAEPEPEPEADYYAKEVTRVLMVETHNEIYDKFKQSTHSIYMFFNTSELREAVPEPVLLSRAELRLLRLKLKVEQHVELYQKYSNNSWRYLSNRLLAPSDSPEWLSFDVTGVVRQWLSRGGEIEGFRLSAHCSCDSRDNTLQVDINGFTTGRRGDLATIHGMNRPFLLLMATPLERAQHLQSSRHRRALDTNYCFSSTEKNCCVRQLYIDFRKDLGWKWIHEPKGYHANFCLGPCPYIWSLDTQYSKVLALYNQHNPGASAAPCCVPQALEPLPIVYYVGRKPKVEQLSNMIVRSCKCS
# integrin αvβ3 on chick embryo sternal chondrocytes (chick), sequence (P26008 20-1034): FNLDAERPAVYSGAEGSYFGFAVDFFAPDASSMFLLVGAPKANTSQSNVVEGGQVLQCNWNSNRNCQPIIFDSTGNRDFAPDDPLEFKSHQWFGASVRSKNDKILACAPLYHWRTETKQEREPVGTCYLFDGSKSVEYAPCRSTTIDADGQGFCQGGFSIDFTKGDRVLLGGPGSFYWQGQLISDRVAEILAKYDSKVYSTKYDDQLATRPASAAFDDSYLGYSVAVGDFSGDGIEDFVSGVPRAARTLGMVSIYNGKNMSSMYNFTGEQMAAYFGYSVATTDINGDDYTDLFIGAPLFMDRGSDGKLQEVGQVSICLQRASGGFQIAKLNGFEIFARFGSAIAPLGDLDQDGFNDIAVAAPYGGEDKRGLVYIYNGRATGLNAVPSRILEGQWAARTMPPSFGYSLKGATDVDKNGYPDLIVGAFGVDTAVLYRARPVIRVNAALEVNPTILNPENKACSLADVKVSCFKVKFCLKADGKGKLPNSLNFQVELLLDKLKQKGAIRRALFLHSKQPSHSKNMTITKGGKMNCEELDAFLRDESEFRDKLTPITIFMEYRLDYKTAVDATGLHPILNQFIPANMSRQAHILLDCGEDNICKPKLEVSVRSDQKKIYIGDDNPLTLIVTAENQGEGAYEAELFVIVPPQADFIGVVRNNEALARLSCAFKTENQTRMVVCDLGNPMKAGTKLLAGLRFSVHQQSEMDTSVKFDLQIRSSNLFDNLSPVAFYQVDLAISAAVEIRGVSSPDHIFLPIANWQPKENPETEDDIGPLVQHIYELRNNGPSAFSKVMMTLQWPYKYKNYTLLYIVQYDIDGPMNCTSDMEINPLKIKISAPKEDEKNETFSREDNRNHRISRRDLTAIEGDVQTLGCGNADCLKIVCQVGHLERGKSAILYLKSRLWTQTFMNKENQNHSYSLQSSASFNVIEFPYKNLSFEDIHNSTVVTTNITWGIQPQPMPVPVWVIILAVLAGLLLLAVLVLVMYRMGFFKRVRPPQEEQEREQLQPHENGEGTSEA
"decrease in AP activity of F-spondin transfected, RA stimulated chick chondrocytes [1]",active TGF-β1 in OA cartilage explant supernatants (ELISA) [2],active TGF-β1 in OA cartilage explant supernatants (ELISA) (pg/g cartilage) [2],Substance
50%,–,–,"LM609, integrin αvβ3 blocking antibody (Chemicon International, Cat No MAB1976Z)"
–,225%,550,recombinant human F-spondin (R&D systems) (from UniProt Q9HCB6 29-807) (ligand)
